Data taken from patent publication US20210221867A1 (Novo Nordisk, published 2021).
Positions of bridges follow the written chain, without caps; N, C: chain ends. Non-standard residues stand in square brackets, D forms with d. dPhe(4-Cl) = N[C@H](Cc1ccc(Cl)cc1)C(=O)O; dPhe(4-Me) = Cc1ccc(C[C@@H](N)C(=O)O)cc1; Nle = CCCC[C@H](N)C(=O)O

What was measured:
human MC4 receptor [1] = molecular target: T1, human MC4 receptor (human, UniProt P32245 1-332); experiment: cell-based or functional assay
human MC1 receptor [2] = molecular target: T2, human MC1 receptor (human, UniProt Q01726 1-317); experiment: SPA competition binding, displacement of 125I-NDP-α-MSH, BHK membranes with human MC1R
T2 construct: whole, on cells; cAMP assay used whole BHK cells; also called melanocortin 1 receptor
Experimental: (§1) The SPA Binding assay was performed in 96-well white opaque plates. Each well contained: 0.5 mg PVT-WGA SPA beads, MC1 receptor expressing membrane diluted to give approximately 10% specific tracer binding, 50.000 dpm ¹²⁵I-NDP-α-MSH and relevant dilutions of test compound. The final volume in each well was 200 μl. […] Plates were incubated overnight (22-24 hours) at room temperature before counting for 2 minutes per well, using a TopCount NXT scintillation counter. Displacement of radio ligand is measured as reduction in light emission from SPA beads, and IC₅₀ values are calculated by nonlinear regression analysis of sigmoidal dose-response curves in GraphPad Prism (GraphPad Software, La Jolla, Calif., USA).

human MC4 receptor [3] = molecular target: T1, human MC4 receptor; experiment: SPA competition binding, displacement of 125I-NDP-α-MSH, BHK membranes with human MC4R
Experimental: as §1, with “MC4” for “MC1”

human MC1 receptor [4] = molecular target: T2, human MC1 receptor; experiment: cell-based or functional assay

T2 sequence (Q01726 whole entry): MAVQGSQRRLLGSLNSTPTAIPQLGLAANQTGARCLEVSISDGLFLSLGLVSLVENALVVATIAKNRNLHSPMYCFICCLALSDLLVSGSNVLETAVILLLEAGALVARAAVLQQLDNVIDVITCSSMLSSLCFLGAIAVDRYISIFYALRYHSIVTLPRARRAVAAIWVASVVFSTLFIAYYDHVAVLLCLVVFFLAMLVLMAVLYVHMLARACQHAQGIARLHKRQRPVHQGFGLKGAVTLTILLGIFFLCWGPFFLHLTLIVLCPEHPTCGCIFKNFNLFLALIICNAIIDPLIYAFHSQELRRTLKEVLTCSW
T1 sequence (P32245 whole entry): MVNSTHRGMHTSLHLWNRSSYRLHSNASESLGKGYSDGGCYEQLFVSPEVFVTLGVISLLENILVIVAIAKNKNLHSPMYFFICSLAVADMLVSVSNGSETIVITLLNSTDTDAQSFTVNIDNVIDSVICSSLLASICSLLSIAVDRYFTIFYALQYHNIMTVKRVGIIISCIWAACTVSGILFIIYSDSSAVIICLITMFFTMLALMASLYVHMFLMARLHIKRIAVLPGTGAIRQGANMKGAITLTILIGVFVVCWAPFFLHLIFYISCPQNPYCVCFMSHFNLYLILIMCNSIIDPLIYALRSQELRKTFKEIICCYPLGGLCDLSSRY

B1: Ac-c[Cys-Pro-His-D-Cl-Phe-His-Trp-Cys]-Pro-Pro-D-Arg-Glu-Nle-D-Arg-D-Arg-NH2 (peptide)
peptide: Ac-CPH[dPhe(4-Cl)]HWCPP[dR]E[Nle][dR][dR]-NH2
modifications: disulfide 1-7
SMILES: CCCC[C@H](NC(=O)[C@H](CCC(=O)O)NC(=O)[C@@H](CCCNC(=N)N)NC(=O)[C@@H]1CCCN1C(=O)[C@@H]1CCCN1C(=O)[C@@H]1CSSC[C@H](NC(C)=O)C(=O)N2CCC[C@H]2C(=O)N[C@@H](Cc2c[nH]cn2)C(=O)N[C@H](Cc2ccc(Cl)cc2)C(=O)N[C@@H](Cc2c[nH]cn2)C(=O)N[C@@H](Cc2c[nH]c3ccccc23)C(=O)N1)C(=O)N[C@H](CCCNC(=N)N)C(=O)N[C@H](CCCNC(=N)N)C(N)=O
notes: Synthetic cyclic peptide; also called Chem. 10
**Q.** What does the source list for B1?
**A.** MC4R cAMP EC50 (human MC4 receptor [1]): 0.43 nM; IC50 (human MC1 receptor [2]): 172 nM; IC50 (human MC4 receptor [3]): 0.28 nM

B2: Ac-c[Cys-Pro-His-D-Phe-His-Trp-Cys]-Pro-Pro-D-Arg-Glu-Nle-D-Arg-D-Arg-NH2 (peptide)
peptide: Ac-CPH[dF]HWCPP[dR]E[Nle][dR][dR]-NH2
modifications: disulfide 1-7
SMILES: CCCC[C@H](NC(=O)[C@H](CCC(=O)O)NC(=O)[C@@H](CCCNC(=N)N)NC(=O)[C@@H]1CCCN1C(=O)[C@@H]1CCCN1C(=O)[C@@H]1CSSC[C@H](NC(C)=O)C(=O)N2CCC[C@H]2C(=O)N[C@@H](Cc2c[nH]cn2)C(=O)N[C@H](Cc2ccccc2)C(=O)N[C@@H](Cc2c[nH]cn2)C(=O)N[C@@H](Cc2c[nH]c3ccccc23)C(=O)N1)C(=O)N[C@H](CCCNC(=N)N)C(=O)N[C@H](CCCNC(=N)N)C(N)=O
notes: Synthetic cyclic peptide; also called Chem. 4
**Q.** For B2, which “MC1R cAMP EC50” value (human MC1 receptor [4]) is on record?
**A.** Its value is 1070 nM.

**Q.** And the “MC4R cAMP EC50” value (human MC4 receptor [1])?
**A.** Its value is 0.53 nM.

**Q.** What about the IC50 (human MC1 receptor [2]) of the same binder?
**A.** The IC50 was 394 nM.

**Q.** And the IC50 (human MC4 receptor [3])?
**A.** Its IC50 is 0.58 nM.

B3: Ac-c[Cys-Pro-His-D-Phe-His-Trp-Cys]-Pro-Pro-D-Arg-Glu-Nle-D-Arg-Arg-NH2 (peptide)
peptide: Ac-CPH[dF]HWCPP[dR]E[Nle][dR]R-NH2
modifications: disulfide 1-7
SMILES: CCCC[C@H](NC(=O)[C@H](CCC(=O)O)NC(=O)[C@@H](CCCNC(=N)N)NC(=O)[C@@H]1CCCN1C(=O)[C@@H]1CCCN1C(=O)[C@@H]1CSSC[C@H](NC(C)=O)C(=O)N2CCC[C@H]2C(=O)N[C@@H](Cc2c[nH]cn2)C(=O)N[C@H](Cc2ccccc2)C(=O)N[C@@H](Cc2c[nH]cn2)C(=O)N[C@@H](Cc2c[nH]c3ccccc23)C(=O)N1)C(=O)N[C@H](CCCNC(=N)N)C(=O)N[C@@H](CCCNC(=N)N)C(N)=O
notes: Synthetic cyclic peptide; also called Chem. 14
**Q.** Which “MC1R cAMP EC50” value (human MC1 receptor [4]) does the source give for B3 here?
**A.** The value was 1160 nM.

**Q.** And the “MC4R cAMP EC50” value (human MC4 receptor [1])?
**A.** Its value is 1.39 nM.

**Q.** And the IC50 (human MC1 receptor [2])?
**A.** Its IC50 is 443 nM.

**Q.** What about the IC50 (human MC4 receptor [3]) of the same binder?
**A.** Its IC50 is 0.86 nM.

B4: Ac-c[Cys-Pro-His-D-Phe-His-Trp-Cys]-Pro-Pro-D-Arg-Glu-Nle-Arg-Arg-NH2 (peptide)
peptide: Ac-CPH[dF]HWCPP[dR]E[Nle]RR-NH2
modifications: disulfide 1-7
SMILES: CCCC[C@H](NC(=O)[C@H](CCC(=O)O)NC(=O)[C@@H](CCCNC(=N)N)NC(=O)[C@@H]1CCCN1C(=O)[C@@H]1CCCN1C(=O)[C@@H]1CSSC[C@H](NC(C)=O)C(=O)N2CCC[C@H]2C(=O)N[C@@H](Cc2c[nH]cn2)C(=O)N[C@H](Cc2ccccc2)C(=O)N[C@@H](Cc2c[nH]cn2)C(=O)N[C@@H](Cc2c[nH]c3ccccc23)C(=O)N1)C(=O)N[C@@H](CCCNC(=N)N)C(=O)N[C@@H](CCCNC(=N)N)C(N)=O
notes: Synthetic cyclic peptide; also called Chem. 3
**Q.** B4 was tested. Which “MC1R cAMP EC50” value (human MC1 receptor [4]) did it give?
**A.** Its value is 778 nM.

**Q.** What about the “MC4R cAMP EC50” value (human MC4 receptor [1]) of the same binder?
**A.** Its value is 1.4 nM.

**Q.** And the IC50 (human MC1 receptor [2])?
**A.** The IC50 was 511 nM.

**Q.** And the IC50 (human MC4 receptor [3])?
**A.** Its IC50 is 1.03 nM.

B5: Ac-c[Cys-Pro-His-D-MePhe-His-Trp-Cys]-Pro-Pro-D-Arg-Glu-Nle-D-Arg-D-Arg-NH2 (peptide)
peptide: Ac-CPH[dPhe(4-Me)]HWCPP[dR]E[Nle][dR][dR]-NH2
modifications: disulfide 1-7
SMILES: CCCC[C@H](NC(=O)[C@H](CCC(=O)O)NC(=O)[C@@H](CCCNC(=N)N)NC(=O)[C@@H]1CCCN1C(=O)[C@@H]1CCCN1C(=O)[C@@H]1CSSC[C@H](NC(C)=O)C(=O)N2CCC[C@H]2C(=O)N[C@@H](Cc2c[nH]cn2)C(=O)N[C@H](Cc2ccc(C)cc2)C(=O)N[C@@H](Cc2c[nH]cn2)C(=O)N[C@@H](Cc2c[nH]c3ccccc23)C(=O)N1)C(=O)N[C@H](CCCNC(=N)N)C(=O)N[C@H](CCCNC(=N)N)C(N)=O
notes: Synthetic cyclic peptide; also called Chem. 9
**Q.** Which results are given for B5?
**A.** MC1R cAMP EC50 (human MC1 receptor [4]): 601 nM; MC4R cAMP EC50 (human MC4 receptor [1]): 2.15 nM; IC50 (human MC1 receptor [2]): 290 nM; IC50 (human MC4 receptor [3]): 0.88 nM

B6: Ac-Arg-c[Cys-Pro-His-D-Phe-His-Trp-Cys]-Pro-Pro-D-Arg-Glu-Nle-Lys-NH2 (peptide)
peptide: Ac-RCPH[dF]HWCPP[dR]E[Nle]K-NH2
modifications: disulfide 2-8
SMILES: CCCC[C@H](NC(=O)[C@H](CCC(=O)O)NC(=O)[C@@H](CCCNC(=N)N)NC(=O)[C@@H]1CCCN1C(=O)[C@@H]1CCCN1C(=O)[C@@H]1CSSC[C@H](NC(=O)[C@H](CCCNC(=N)N)NC(C)=O)C(=O)N2CCC[C@H]2C(=O)N[C@@H](Cc2c[nH]cn2)C(=O)N[C@H](Cc2ccccc2)C(=O)N[C@@H](Cc2c[nH]cn2)C(=O)N[C@@H](Cc2c[nH]c3ccccc23)C(=O)N1)C(=O)N[C@@H](CCCCN)C(N)=O
notes: Synthetic cyclic peptide; also called Chem. 2
**Q.** Which “MC1R cAMP EC50” value (human MC1 receptor [4]) does the source give for B6 here?
**A.** The value was 288 nM.

**Q.** And the “MC4R cAMP EC50” value (human MC4 receptor [1])?
**A.** Its value is 1.17 nM.

**Q.** What about the IC50 (human MC1 receptor [2]) of the same binder?
**A.** Its IC50 is 144 nM.

**Q.** What about the IC50 (human MC4 receptor [3]) of the same binder?
**A.** Its IC50 is 0.71 nM.
